Results reported in patent publication US20250027068A1 (published 2025).
Residue numbers refer to the chain shown, from its start.

B1: PRT-385 (enzyme)
chain: MVTSVWTKGVTPPTNFTYGEDVLHAPYVANQGWYDITKTFNGKDDLLCGAATAGNMLHWWFDQNKEQIENYLKKHPEKQKINFNGEQMFDVKEAIDTKDSQLDSKLFEYFKEKAFPYLSTKHLGVFPDHVIDMFINGYRLSLTNHGPTPVKRGSKDPRGGIFDAVFTRGDQSKLLTNRHDFKEKTLKEISDLIKQELTEGKALGISHTYANGRINHVINLWGADFDAEGNLEAIYVTDSDSNASIGMKKYFVGVNSNGKVAISAKEIEEDNIGAQVLGLFTLSTGQDIWNQTN
B2: PRT-393 (enzyme)
chain: B1 chain with G212V, S241T
B3: PRT-401 (enzyme)
chain: MVTSVWTKGVTPPADFTQGEDVFHAPYVANQGWYDITKEFNGKDDLLCGAATAGNMLHWWFDQNKEYIEAYLKKHPEKQKIMFGDQELLDVRKAINTKGSQKNSELFNYFRDKAFPNLSARRLGVMPDLVLDMFINGYYLNVTKTQTTDVNRTYQEKDKRGGIFDAVFTRGDQSKLLTSRHDFKEKGLKEISDLIKQELTEGKALGLSHTYANVRINHVINLWGADFDSDGNLKAIYVTDSDSNASIGMKKYFVGVNSAGKVAISAKEIKEDNIGAQVLGLFTLSTGQDIWNQTN
B4: PRT-409 (enzyme)
chain: B3 chain with E39T, D172V
B5: PRT-417 (enzyme)
chain: MTITSVWTKGVTPPTPEDFRYNNEDVLHAPYVANQGWYDITKTFDGKDNLLCGAATAGNMLHWWFDQNKEEIERYLKKHPEKQKIIFNNQELFDVKAAIDTKDSQTNSKLFNYFRDKAFPNLSARQLGVMPDLVLDMFINGYYLNLGKTQSTDVNRPYQDKDKRGGIFDAVFTRGDQTTLLTARHDLKNKGLNEISDLIKQELTEGKALALSHTYANVRINHVINLWGADFDAEGELIAIYVTDSDANASIGMKKYFVGVNANGKVAISAKKIEGDNIGAQVLGLFTLSTGQDIWQKLS
B6: PRT-425 (enzyme)
chain: B5 chain with N121G, E236N
B7: PRT-443 (enzyme)
chain: MSQTEDSESLQRLRDIEDFQAEKKKQNVVYTKWLDGVDVKDHDFRKIVDGNIAYYATPLLNGRGFYDINKDFNRDSDKCAAAVAANMFHYWLDRNRDNVDRFLRQNPEKHGIIELPDEQLKLSDFLNTYESDDGYRDKSKLFDFISNNFNGPVWTDKLLDNYINGYAYNYKYGRTIEDPTKNTSKINFFKEVFNEKILTNNHSIRNQNEFSVLLSEALYTGKAIGLSYGPAGLRHSLGHIISVWGADLDADGNVVAIYVTDSDDKKLTIGDERVGLKRYKISTDDEGRLRLTAYEETHNTGGQIRGLWTLDTGKQAWADYFDKTEQTGTDQAEQ
B8: PRT-378 (enzyme)
chain: B1 chain with Y117S, G212V
B9: PRT-386 (enzyme)
chain: B1 chain with G212V, Y235A
B10: PRT-394 (enzyme)
chain: B1 chain with G212V, N242E
B11: PRT-402 (enzyme)
chain: B3 chain with E39T, I216L
B12: PRT-410 (enzyme)
chain: B3 chain with E39T, S243T
B13: PRT-418 (enzyme)
chain: B5 chain with E236N, F257A
B14: PRT-426 (enzyme)
chain: B5 chain with M130F, E236N
B15: PRT-444 (enzyme)
chain: B7 chain with E118G, G151K
B16: PRT-379 (enzyme)
chain: B1 chain with T143L, G212V
B17: PRT-387 (enzyme)
chain: B1 chain with G212V, N257S
B18: PRT-395 (enzyme)
chain: B3 chain with E39T, N117T
B19: PRT-403 (enzyme)
chain: B3 chain with E39T, N217S
B20: PRT-411 (enzyme)
chain: B3 chain with E39T, N244R

Biological target: pooled human IgG (human IgG1, 2, 3 and 4) (human)
Experiment: cell-based or functional assay
Also: test concentration or dose not given here.

Binder | Enzyme Activity Endpoint Assay: Fab′2 [ng/µL] | Enzyme Activity Endpoint Assay: Fc [ng/µL] | Enzyme Activity Endpoint Assay: IgG [ng/µL] | Enzyme Activity Endpoint Assay: scIgG [ng/µL]
B1 | 494 | 265 | 103 | 56
B2 | 663 | 317 | 0 | 0
B3 | 624 | 329 | 128 | 0
B4 | 658 | 313 | 0 | 0
B5 | 193 | 27 | 324 | 0
B6 | 568 | 27 | 169 | 0
B7 | 17 | 0 | 431 | 535
B8 | 477 | 319 | 0 | 207
B9 | 519 | 337 | 0 | 240
B10 | 482 | 323 | 0 | 209
B11 | 530 | 342 | 0 | 188
B12 | 567 | 297 | 206 | 0
B13 | 382 | 283 | 288 | 149
B14 | 508 | 283 | 243 | 0
B15 | 494 | 321 | 0 | 286
B16 | 599 | 370 | 0 | 226
B17 | 605 | 366 | 0 | 242
B18 | 544 | 358 | 0 | 204
B19 | 569 | 332 | 166 | 40
B20 | 519 | 341 | 90 | 155
